Assay results published in patent US20030022275, “HUMAN NK-3 RELATED PROSTATE SPECIFIC GENE-1” (published 2003).

Assays:
[1] = biological target: T1, NKX3.1 homeodomain (NKX3.1HD) (Homo sapiens, UniProt Q99801 SEQ:122-188); assay: EMSA; human protein stated to behave identically to murine; details: tags: N-terminal 6xHis (pQE-9, E. coli); label: 32P
Protocol: (§1) The DNA binding experiments were performed as follows. Briefly, increasing amounts of protein were incubated in binding buffer [10 mM Tris-HCl ([…]), 50 mM NaCl, 5% glycerol, 5% sucrose, 0.2 mM EDTA, 7.5 mM MgCl₂, 0.5 mg/mL bovine serum albumin, 0.1% NP-40, 10 mM DTT, 500 μg of poly-didC] with 4×10⁴ cpm of ³²P-labeled, double stranded oligonucleotide for 20 min at room temperature. The sequences of the DNA binding sites were as follows (top strand shown):
(§2) The DNA binding specificity of NKX3.1HD was examined by gel mobility shift analysis using various DNA sites identified for NK-like and Antennapedia-like homeodomains. The DNA sites were as follows: (i) the consensus DNA site for the NKX2.1 homeodomain (TCAAGTG) (Guazzi, S. et al., EMBO J. 9:3631-3639 (1990)) and a mutated version of this site that contains nucleotide substitutions within the CAAG core (TCACGTG); and (ii) the consensus DNA site identified for an Antennapedia-like homeodomain (Msx1) (CTAATTG), a mutated version of this site that contains nucleotide substitutions within the TAAT core (CTACTTG), or one that contains nucleotide substitutions 3′ of the TAAT core (CTAATGG) (Catron, K. M. et al., Mol. Cell. Biol. 13;2354-2365 (1993); Guazzi, S. et al., EMBO J. 9:3631-3639 (1990)). […]

[2] = biological target: T1, NKX3.1 homeodomain (NKX3.1HD); assay: EMSA; human protein stated to behave identically to murine in DNA binding; details: tags: N-terminal 6xHis (pQE-9, E. coli); label: 32P
Protocol: as §1, §2

| Binder | binding result [1] | binding result [2] |
| --- | --- | --- |
| site 6-19 (mutated TAAT core) (dsDNA) DNA 1: ACACTACTTGGAGGC DNA 2: GCCTCCAAGTAGTGT | no binding | – |
| mutated C site (CACG) (dsDNA) DNA 1: CACTGCCCAGTCACGTGTTCGTGA DNA 2: TCACGAACACGTGACTGGGCAGTG | no binding | – |
| C site (NKX2.1 consensus, CAAG core) (dsDNA) DNA 1: CACTGCCCAGTCAAGTGTTCTTGA DNA 2: TCAAGAACACTTGACTGGGCAGTG | – | binds |
